{
  "source": "paper PMC5127641",
  "about": "(eLife, 2016)",
  "target": "M-CDP04 (αMCL1)",
  "assay": "BLI; biotinylated BCL2 homolog (25 nM) immobilised on streptavidin biosensors, designed protein in solution at defined concentrations; Octet RED96; 10 mM HEPES pH 7.4, 150 mM NaCl, 3 mM EDTA, 0.05% surfactant P20, 0.5% non-fat dry milk; titrations in triplicate, 1:1 binding model",
  "conditions": "both partners purified",
  "note": "Values joined by “and” are separate entries in the source; they are usually repeats but may differ in a detail not shown here. Equal values may be shown once.",
  "data": [
    {"binder": "Bcl-B (natural protein, biotin (enzymatic, BirA)) ADPLRERTELLLADYLGYCAREPGTPEPAPSTPEAAVLRSAAARLRQIHRSFFSAYLGYPGNRFELVALMADSVLSDSPGPTWGRVVTLVTFAGTLLERGPLVTARWKKWGFQPRLKEQEGDVARDCQRLVALLSSRLMGQHRAWLQAQGGWDGFCHFFRTPFPLA", "values": [
      {"measurement": "koff", "value": "0.199 s⁻¹ and 0.186 s⁻¹ and 0.148 s⁻¹ and 0.178 s⁻¹"},
      {"measurement": "kon", "value": "5830 M⁻¹ s⁻¹ and 9300 M⁻¹ s⁻¹ and 13200 M⁻¹ s⁻¹ and 9440 M⁻¹ s⁻¹"}
    ]}
  ]
}
